Experimental data from the supplement of paper PMC9112550, “Optimization of the antimicrobial peptide Bac7 by deep mutational scanning” (BMC Biology, 2022).
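Note: peptides expressed intracellularly from a pBAD plasmid library in pooled LB shake-flask culture, induced with 0.3% L-arabinose, DNA abundance read by NGS, three biological replicates, DESeq2 with apeglm shrinkage.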

The sequences below were run on Escherichia coli TOP10 (assay: shrunken log2 fold change of peptide-encoding DNA abundance (4.5 h post-induction vs induction); higher = less antimicrobial activity (less host growth inhibition)). Details: time post-induction: 4.5 h; library: site-saturation at positions 5, 18, 19, 20.
With RRIRWRPPRLPRPRPRPPGWPRP the “shrunken log2 fold change” value was 0.527. In the case of RRIRWRPPRLPRPRPRPPHDPRP, the “shrunken log2 fold change” value is reported as 0.738. In the case of RRIRWRPPRLPRPRPRPPHFPRP, the “shrunken log2 fold change” value is reported as 0.701. For RRIRWRPPRLPRPRPRPPIDPRP, the “shrunken log2 fold change” value was 0.1. In the case of RRIRWRPPRLPRPRPRPPIEPRP, the “shrunken log2 fold change” value is reported as 0.702. In the case of RRIRWRPPRLPRPRPRPPIMPRP, the “shrunken log2 fold change” value is reported as 0.271. RRIRWRPPRLPRPRPRPPIQPRP was tested, and the “shrunken log2 fold change” value was 0.277. With RRIRWRPPRLPRPRPRPPISPRP the “shrunken log2 fold change” value was 0.172. RRIRWRPPRLPRPRPRPPKKPRP was tested, and the “shrunken log2 fold change” value was 1.27. In the case of RRIRWRPPRLPRPRPRPPMKPRP, the “shrunken log2 fold change” value is reported as 0.234. With RRIRWRPPRLPRPRPRPPMPPRP the “shrunken log2 fold change” value was 0.444. RRIRWRPPRLPRPRPRPPNYPRP was tested, and the “shrunken log2 fold change” value was -0.0821. For RRIRWRPPRLPRPRPRPPPMPRP, the “shrunken log2 fold change” value was 0.72. RRIRWRPPRLPRPRPRPPQRPRP was tested, and the “shrunken log2 fold change” value was 0.548. In the case of RRIRWRPPRLPRPRPRPPRAPRP, the “shrunken log2 fold change” value is reported as 0.782. RRIRWRPPRLPRPRPRPPRCPRP was tested, and the “shrunken log2 fold change” value was 0.483. With RRIRWRPPRLPRPRPRPPSRPRP the “shrunken log2 fold change” value was 0.314. For RRIRWRPPRLPRPRPRPPVPPRP, the “shrunken log2 fold change” value was 0.469. RRIRWRPPRLPRPRPRPPWIPRP was tested, and the “shrunken log2 fold change” value was 1.44. RRIRWRPPRLPRPRPRPPWQPRP was tested, and the “shrunken log2 fold change” value was 0.289. For RRIRWRPPRLPRPRPRPQASPRP, the “shrunken log2 fold change” value was -0.11. In the case of RRIRWRPPRLPRPRPRPQCCPRP, the “shrunken log2 fold change” value is reported as -0.0128. For RRIRWRPPRLPRPRPRPQCTPRP, the “shrunken log2 fold change” value was 0.11. With RRIRWRPPRLPRPRPRPQCYPRP the “shrunken log2 fold change” value was -0.252. For RRIRWRPPRLPRPRPRPQDFPRP, the “shrunken log2 fold change” value was 0.203. RRIRWRPPRLPRPRPRPQDHPRP was tested, and the “shrunken log2 fold change” value was 0.178. For RRIRWRPPRLPRPRPRPQDPPRP, the “shrunken log2 fold change” value was 0.0126. For RRIRWRPPRLPRPRPRPQDTPRP, the “shrunken log2 fold change” value was -0.0161. With RRIRWRPPRLPRPRPRPQGDPRP the “shrunken log2 fold change” value was -0.0316. For RRIRWRPPRLPRPRPRPQIMPRP, the “shrunken log2 fold change” value was -0.0336. For RRIRWRPPRLPRPRPRPQIPPRP, the “shrunken log2 fold change” value was -0.493. With RRIRWRPPRLPRPRPRPQKMPRP the “shrunken log2 fold change” value was -0.0924. In the case of RRIRWRPPRLPRPRPRPQKVPRP, the “shrunken log2 fold change” value is reported as 0.166. For RRIRWRPPRLPRPRPRPQLHPRP, the “shrunken log2 fold change” value was 0.123. For RRIRWRPPRLPRPRPRPQLKPRP, the “shrunken log2 fold change” value was 0.147. RRIRWRPPRLPRPRPRPQLWPRP was tested, and the “shrunken log2 fold change” value was 1.02. With RRIRWRPPRLPRPRPRPQNQPRP the “shrunken log2 fold change” value was -0.265. RRIRWRPPRLPRPRPRPQPDPRP was tested, and the “shrunken log2 fold change” value was 0.32. For RRIRWRPPRLPRPRPRPQPIPRP, the “shrunken log2 fold change” value was 0.813. In the case of RRIRWRPPRLPRPRPRPQQPPRP, the “shrunken log2 fold change” value is reported as 0.383. With RRIRWRPPRLPRPRPRPQSAPRP the “shrunken log2 fold change” value was 0.372. In the case of RRIRWRPPRLPRPRPRPQVWPRP, the “shrunken log2 fold change” value is reported as 0.576. In the case of RRIRWRPPRLPRPRPRPQWSPRP, the “shrunken log2 fold change” value is reported as -0.0983. RRIRWRPPRLPRPRPRPQYKPRP was tested, and the “shrunken log2 fold change” value was -0.696. In the case of RRIRWRPPRLPRPRPRPRAHPRP, the “shrunken log2 fold change” value is reported as 0.167. With RRIRWRPPRLPRPRPRPRCCPRP the “shrunken log2 fold change” value was 0.448. With RRIRWRPPRLPRPRPRPRFIPRP the “shrunken log2 fold change” value was -0.00733. With RRIRWRPPRLPRPRPRPRHPPRP the “shrunken log2 fold change” value was 0.382. With RRIRWRPPRLPRPRPRPRHTPRP the “shrunken log2 fold change” value was -0.0876. In the case of RRIRWRPPRLPRPRPRPRLAPRP, the “shrunken log2 fold change” value is reported as 0.84. For RRIRWRPPRLPRPRPRPRMDPRP, the “shrunken log2 fold change” value was 0.211. With RRIRWRPPRLPRPRPRPRMNPRP the “shrunken log2 fold change” value was -0.111. RRIRWRPPRLPRPRPRPRNDPRP was tested, and the “shrunken log2 fold change” value was 0.126. RRIRWRPPRLPRPRPRPRNKPRP was tested, and the “shrunken log2 fold change” value was 0.0794. For RRIRWRPPRLPRPRPRPRQCPRP, the “shrunken log2 fold change” value was 0.137. For RRIRWRPPRLPRPRPRPRQHPRP, the “shrunken log2 fold change” value was 0.251. For RRIRWRPPRLPRPRPRPRRCPRP, the “shrunken log2 fold change” value was 0.224. With RRIRWRPPRLPRPRPRPRSNPRP the “shrunken log2 fold change” value was -0.133. RRIRWRPPRLPRPRPRPRSTPRP was tested, and the “shrunken log2 fold change” value was 0.551. In the case of RRIRWRPPRLPRPRPRPRTCPRP, the “shrunken log2 fold change” value is reported as -0.045. For RRIRWRPPRLPRPRPRPRTYPRP, the “shrunken log2 fold change” value was -0.331. For RRIRWRPPRLPRPRPRPRVGPRP, the “shrunken log2 fold change” value was 0.563. With RRIRWRPPRLPRPRPRPRVMPRP the “shrunken log2 fold change” value was 0.275. In the case of RRIRWRPPRLPRPRPRPRVSPRP, the “shrunken log2 fold change” value is reported as 0.158. For RRIRWRPPRLPRPRPRPRWWPRP, the “shrunken log2 fold change” value was 0.0648. For RRIRWRPPRLPRPRPRPRYEPRP, the “shrunken log2 fold change” value was 0.0756. With RRIRWRPPRLPRPRPRPRYPPRP the “shrunken log2 fold change” value was 0.175. RRIRWRPPRLPRPRPRPSAGPRP was tested, and the “shrunken log2 fold change” value was 0.231. RRIRWRPPRLPRPRPRPSAVPRP was tested, and the “shrunken log2 fold change” value was 0.6. With RRIRWRPPRLPRPRPRPSCPPRP the “shrunken log2 fold change” value was -0.33. With RRIRWRPPRLPRPRPRPSDNPRP the “shrunken log2 fold change” value was -0.14. With RRIRWRPPRLPRPRPRPSEMPRP the “shrunken log2 fold change” value was -0.148. In the case of RRIRWRPPRLPRPRPRPSFLPRP, the “shrunken log2 fold change” value is reported as -0.351. With RRIRWRPPRLPRPRPRPSFYPRP the “shrunken log2 fold change” value was -0.328. RRIRWRPPRLPRPRPRPSGFPRP was tested, and the “shrunken log2 fold change” value was 0.121. For RRIRWRPPRLPRPRPRPSGNPRP, the “shrunken log2 fold change” value was -0.0162. RRIRWRPPRLPRPRPRPSGQPRP was tested, and the “shrunken log2 fold change” value was -0.0599. With RRIRWRPPRLPRPRPRPSIMPRP the “shrunken log2 fold change” value was -0.0893. RRIRWRPPRLPRPRPRPSINPRP was tested, and the “shrunken log2 fold change” value was -0.0638. In the case of RRIRWRPPRLPRPRPRPSIPPRP, the “shrunken log2 fold change” value is reported as 0.46. RRIRWRPPRLPRPRPRPSIWPRP was tested, and the “shrunken log2 fold change” value was -0.353. RRIRWRPPRLPRPRPRPSIYPRP was tested, and the “shrunken log2 fold change” value was -0.305. For RRIRWRPPRLPRPRPRPSLDPRP, the “shrunken log2 fold change” value was -0.00135. In the case of RRIRWRPPRLPRPRPRPSLGPRP, the “shrunken log2 fold change” value is reported as 0.338. RRIRWRPPRLPRPRPRPSMKPRP was tested, and the “shrunken log2 fold change” value was -0.199. In the case of RRIRWRPPRLPRPRPRPSMQPRP, the “shrunken log2 fold change” value is reported as -0.0561. For RRIRWRPPRLPRPRPRPSMSPRP, the “shrunken log2 fold change” value was 0.0258. With RRIRWRPPRLPRPRPRPSPSPRP the “shrunken log2 fold change” value was 0.375. For RRIRWRPPRLPRPRPRPSQNPRP, the “shrunken log2 fold change” value was 0.236. With RRIRWRPPRLPRPRPRPSSSPRP the “shrunken log2 fold change” value was 0.00035. With RRIRWRPPRLPRPRPRPSTLPRP the “shrunken log2 fold change” value was -0.253. RRIRWRPPRLPRPRPRPSTNPRP was tested, and the “shrunken log2 fold change” value was -0.127. For RRIRWRPPRLPRPRPRPSTTPRP, the “shrunken log2 fold change” value was 0.221. In the case of RRIRWRPPRLPRPRPRPSVHPRP, the “shrunken log2 fold change” value is reported as -0.136. For RRIRWRPPRLPRPRPRPSWFPRP, the “shrunken log2 fold change” value was -0.0343. For RRIRWRPPRLPRPRPRPTAAPRP, the “shrunken log2 fold change” value was 1.65. With RRIRWRPPRLPRPRPRPTAGPRP the “shrunken log2 fold change” value was 0.965. For RRIRWRPPRLPRPRPRPTATPRP, the “shrunken log2 fold change” value was 0.528. RRIRWRPPRLPRPRPRPTFKPRP was tested, and the “shrunken log2 fold change” value was 0.132. With RRIRWRPPRLPRPRPRPTFLPRP the “shrunken log2 fold change” value was 0.146. In the case of RRIRWRPPRLPRPRPRPTFYPRP, the “shrunken log2 fold change” value is reported as -0.298. With RRIRWRPPRLPRPRPRPTGAPRP the “shrunken log2 fold change” value was 0.337. In the case of RRIRWRPPRLPRPRPRPTGGPRP, the “shrunken log2 fold change” value is reported as 0.511. In the case of RRIRWRPPRLPRPRPRPTGSPRP, the “shrunken log2 fold change” value is reported as 0.123. In the case of RRIRWRPPRLPRPRPRPTHDPRP, the “shrunken log2 fold change” value is reported as 0.196. RRIRWRPPRLPRPRPRPTHLPRP was tested, and the “shrunken log2 fold change” value was 0.0424. RRIRWRPPRLPRPRPRPTHQPRP was tested, and the “shrunken log2 fold change” value was -0.0304. RRIRWRPPRLPRPRPRPTICPRP was tested, and the “shrunken log2 fold change” value was -0.106. RRIRWRPPRLPRPRPRPTIMPRP was tested, and the “shrunken log2 fold change” value was -0.0533.
